# In publication PMC3155284:
# Experiments:
# [1] = target: EphA2, endogenous (human (endogenous in PC3 and U251)) (UniProt P29317)
# [2] = target: EphA2, endogenous (human (endogenous in PC3 and U251)) (UniProt P29317); remark: listed apart in the source
# Chain of UniProt P29317 (P29317 24-976): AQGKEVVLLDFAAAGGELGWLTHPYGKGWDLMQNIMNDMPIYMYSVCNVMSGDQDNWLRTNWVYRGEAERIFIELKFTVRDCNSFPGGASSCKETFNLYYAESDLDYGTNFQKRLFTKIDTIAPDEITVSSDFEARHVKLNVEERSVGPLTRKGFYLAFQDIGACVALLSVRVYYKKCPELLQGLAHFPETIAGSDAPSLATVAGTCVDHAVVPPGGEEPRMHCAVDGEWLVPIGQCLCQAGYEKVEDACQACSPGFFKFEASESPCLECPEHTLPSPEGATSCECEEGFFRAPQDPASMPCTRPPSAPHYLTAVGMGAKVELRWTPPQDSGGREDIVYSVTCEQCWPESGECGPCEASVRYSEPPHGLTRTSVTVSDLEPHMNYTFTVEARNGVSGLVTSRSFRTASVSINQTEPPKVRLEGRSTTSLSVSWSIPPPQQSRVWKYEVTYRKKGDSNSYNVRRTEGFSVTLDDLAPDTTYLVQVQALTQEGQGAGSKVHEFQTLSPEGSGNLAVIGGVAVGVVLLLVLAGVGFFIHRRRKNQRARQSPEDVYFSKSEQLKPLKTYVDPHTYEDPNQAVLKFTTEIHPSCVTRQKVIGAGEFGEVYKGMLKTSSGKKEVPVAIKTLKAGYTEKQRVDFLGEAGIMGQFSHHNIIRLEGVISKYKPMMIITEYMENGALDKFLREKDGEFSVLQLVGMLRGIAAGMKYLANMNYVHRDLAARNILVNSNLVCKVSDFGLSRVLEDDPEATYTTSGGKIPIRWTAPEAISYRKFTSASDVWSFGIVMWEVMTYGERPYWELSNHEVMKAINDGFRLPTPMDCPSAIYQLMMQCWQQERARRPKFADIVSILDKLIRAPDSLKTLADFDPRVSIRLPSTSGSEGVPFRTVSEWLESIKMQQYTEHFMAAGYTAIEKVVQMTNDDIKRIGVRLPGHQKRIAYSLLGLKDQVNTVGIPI
substance,measurement,setting,value
ephrin A1-Fc (from UniProt P20827 19-182) (Fc fusion),rounding of PC3 cells after a brief exposure to ephrin A1-Fc,[1],90%
same,inhibition of U251 cell migration in Boyden chambers by ligand,[2],50%
